Here are results for four molecules from US20160096891A1 (AstraZeneca / MedImmune, published 2016).

Substitutions are numbered along the chain they refer to.

In experiment [1] the target is T1, human B7-H5 expressed on cells (CHO transfectants) (human, UniProt Q9UM44 23-414).
T1 construct: also called B7-H7; HHLA2
T1 sequence: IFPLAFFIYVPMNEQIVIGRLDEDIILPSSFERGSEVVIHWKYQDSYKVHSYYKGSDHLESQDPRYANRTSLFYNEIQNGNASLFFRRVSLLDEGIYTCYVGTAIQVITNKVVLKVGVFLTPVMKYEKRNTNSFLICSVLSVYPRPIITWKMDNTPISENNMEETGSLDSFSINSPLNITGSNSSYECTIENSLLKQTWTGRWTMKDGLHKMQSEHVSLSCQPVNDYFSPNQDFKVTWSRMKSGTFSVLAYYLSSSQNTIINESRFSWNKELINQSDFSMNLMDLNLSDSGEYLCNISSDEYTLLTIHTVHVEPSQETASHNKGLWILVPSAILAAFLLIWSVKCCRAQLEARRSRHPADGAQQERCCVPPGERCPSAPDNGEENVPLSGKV
Put plainly: flow cytometry on CHO transfectants expressing human B7-H5. A general note: A flow cytometer gives signals particle by particle.

Experiment [2] deals with T2, human B7-H5 expressed on cells (CHO transfectants) (UniProt Q9UM44 23-414).
T2 chain: T1 sequence
Put plainly: FACS binding to CHO cells.

For experiment [3], the target named is T1, human B7-H5 expressed on cells (CHO …). Put plainly: flow cytometry on CHO cells expressing human B7-H5 (figure legend). How it is done:
Human B7-H5 FL CHO transfectants were pre-incubated with control supernatant (Panel A) or recombinant chimeric 2D3 (Panel B) and 18C3 supernatants (Panel C), and subsequently stained with biotinylated CD28HhIg fusion protein.
The human B7-H5-binding antibodies of the present invention (antibodies 2D3 and 18C3) were recombinantly converted to a human IgG4P isotype from their native hamster isotype. CHO transfectants that express human B7-H5 were then incubated in the presence of the recombinant antibodies. […] FIG. 15 compares the affinities of antibodies 2D3 and 18C3 for binding to human B7-H5 as expressed on the surface of CHO cells.

B1: anti-human B7-H5 antibody 2D3 (hybridoma clone 2D3) (antibody, V domains shown)
VH: QVQLQQSGAELVKPGASVKLSCKASGYTFTSHDINWVRQRPELGLEWIGWIFPGDGSTKFNEKFKGKATLTTDKSSSTAYIQLSRLTSEDSAVYFCARNSFYSMDYWGQGTSVTVSS
VL: DIVMSQSPSSLAVSAGEKVTMSCKSSQSLLNSRTRKNQLAWYQQKPGQSPKLLIYWAFIRESGVPDRFTGSGSGTDFTLTISSVQAEDLAVYYCKQSYNLRTFGGGTKLEIK
notes: constant regions are not; also called Anti-Human B7-H5 Clone 2D3; 2D3 mAb
As for B1, in experiment [1], the binding result is reported as “binds”. For the same molecule, the Kd (commonly the constant that tells how readily two partners part at equilibrium) in experiment [2] was ~2.5 nM.

B2: recombinant anti-human B7-H5 chimeric antibody 2D3, human IgG4P isotype (antibody, V domains shown)
VH: B1 VH
VL: B1 VL
notes: also called recombinant chimeric 2D3; human IgG4P derivative of 2D3
Regarding B2, in experiment [3], the binding result is on record as “binds”.

B3: recombinant anti-human B7-H5 chimeric antibody 18C3, human IgG4P isotype (antibody, V domains shown)
VH: B1 VH with L43Q
VL: B1 VL with F58S, I59T
notes: also called recombinant chimeric 18C3; human IgG4P derivative of 18C3
Consider B3, for which the binding result in experiment [3] is on record as “binds”.

B4: anti-human B7-H5 antibody 18C3 (hybridoma clone 18C3) (antibody, V domains shown)
VH: B1 VH with L43Q
VL: B1 VL with F58S, I59T
notes: constant regions are not; also called Anti-Human B7-H5 Clone 18C3
Consider B4, for which the binding result in experiment [1] is listed as “binds”. The Kd in experiment [2] is ~3.8 nM.
